Patent publication US20250282880A1 (NUMAB THERAPEUTICS, published 2025)
Substitutions are numbered along the chain they refer to. Names may count otherwise. Read-outs that look alike come from different tables or passages of the source.

B1: PRO1517 (scFv)
scFv: DIQMTQSPSSLSASVGDRVTITCQASEDIESYLAWYQQKPGKAPKLLIYRASTLAYGVPSRFSGSGSGTDFTLTISSLQPEDFATYYCLGSSYSTGSNIFGTGTKVTVLGGGGGSGGGGSGGGGSGGGGSEVQLVESGGGLVQPGGSLRLSCAASGFSSSSAHYMCWVRQAPGKGLEWIGCIYAGSRGSTYYASWAKGRFTISRDNSKNTVYLQMNSLRAEDTAVYYCARAAFVNRGVSWIWPYYFSLWGQGTLVTVSS
notes: humanized scFv (VL-linker-VH), CDR graft of rabbit clone 44-34-C10; also called 44-34-C10-sc01; 44-34-C10 sc01
B2: PRO1535 (scFv)
scFv: B1 scFv with A43P, V132S, G180A, R204K, Y227F
notes: humanized scFv (VL-linker-VH), Full graft of rabbit clone 44-34-C10; also called 44-34-C10-sc04; 44-34-C10 sc04
B3: PRO1898 (scFv)
scFv: B1 scFv with S14R, T69R
notes: optimized variant of PRO1517 (VL S14R, T87R, AHo numbering); scFv VL-linker-VH; also called 44-34-C10-sc08

Assays:
Marmoset IL-4R ECD = biological target: T1, Marmoset IL-4R ECD (marmoset (Callithrix jacchus), UniProt Q0PIT7 26-232); experiment: SPR, direct setup: marmoset IL-4R ECD immobilized, scFv as analyte
T1 construct: also called marmoset monkey IL-4R
Procedure: (§1) Cross-reactivity to cynomolgus IL-4R was measured using the same setup as for the analysis of human IL-4R affinities, with the difference that cynomolgus IL-4R-Fc was captured instead of human IL-4R-Fc. To determine affinities for marmoset IL-4R, a direct setup was used since only extracellular domain (ECD) of marmoset IL-4R was available. Marmoset ECD was immobilized directly onto the sensor chip and a titration series of scFvs was injected as analyte. To allow for comparison between KD values obtained for cynomolgus and marmoset IL-4R, affinities to cynomolgus IL-4R ECD were also determined using a direct setup.

cynomolgus IL-4R ECD = biological target: T2, cynomolgus IL-4R ECD (cynomolgus monkey (Macaca fascicularis), UniProt A0A2K5V556 26-232); experiment: SPR, direct setup: cynomolgus IL-4R ECD immobilized, scFv as analyte
T2 construct: immobilized directly on the sensor chip; also called cynomolgus IL-4R (direct setup)
Procedure: as §1

IL-4R on HEK-Blue cells [1] = biological target: T3, IL-4R on HEK-Blue cells (human, UniProt P24394 26-825); experiment: cell-based or functional assay
Biotinylated IL-4R [2] = biological target: T4, Biotinylated IL-4R (human, UniProt P24394 26-232, limits assumed, biotinylated); experiment: competitive ELISA: IL-4 coated, biotinylated IL-4R preincubated with scFv
T4 construct: also called human IL-4R; hIL-4R
Description: (§2) Bound biotinylated IL-4R was then detected using streptavidin-HRP.
Potency of humanized scFvs was further determined using a competitive ELISA.

Human IL-4R-Fc [3] = biological target: T5, Human IL-4R-Fc (human, UniProt P24394 26-232); experiment: SPR (Biacore T200), human IL-4R-Fc captured via anti-human IgG-Fc, scFv as analyte, 1:1 model
T5 construct: not shown: Fc part (captured via anti-human IgG-Fc)
Procedure: (§3) Affinity of the 16 humanized scFvs (derived from 5 rabbit monoclonal antibodies) to human IL-4R was determined by SPR analysis on a T200 device (Biacore, GE Healthcare). Human IL-4R-Fc was captured via an anti-human IgG-Fc coupled to a carboxylmethylated dextran surface and the scFvs were injected as analyte. After each analyte injection cycle the sensor chip was regenerated and new antigen was captured. The scFvs were measured using a dose response multi-cycle kinetic assay with seven analyte concentrations ranging from 0.12 to 90 nM diluted in running buffer. Obtained sensorgrams were fitted using a 1:1 binding model.

cynomolgus IL-4R-Fc [4] = biological target: T6, cynomolgus IL-4R-Fc (cynomolgus monkey (Macaca fascicularis), UniProt A0A2K5V580 33-239); experiment: SPR, capture setup: cynomolgus IL-4R-Fc captured, scFv as analyte
T6 construct: also called cynomolgus IL-4R (capture setup); not shown: Fc part
Procedure: as §3, §1

IL-4R on HEK-Blue cells [5] = biological target: T3, IL-4R on HEK-Blue cells; experiment: cell-based or functional assay; remark: listed apart in the source
cynomolgus IL-4R-Fc [6] = biological target: T6, cynomolgus IL-4R-Fc; experiment: SPR, capture setup: cynomolgus IL-4R-Fc captured, scFv as analyte; remark: listed apart in the source
Human IL-4R-Fc [7] = biological target: T5, Human IL-4R-Fc; experiment: SPR (Biacore T200), human IL-4R-Fc captured, scFv as analyte 0.12 to 90 nM, 1:1 model
Procedure: as §3
The scFvs were measured using a dose response multi-cycle kinetic assay with seven analyte concentrations ranging from 0.12 to 90 nM diluted in running buffer. Obtained sensorgrams were fitted using a 1:1 binding model.

Biotinylated IL-4R [8] = biological target: T4, Biotinylated IL-4R; experiment: competitive ELISA: IL-4 coated, biotinylated IL-4R preincubated with scFv; remark: listed apart in the source
Description: as §2

T2 sequence (A0A2K5V556 entry or part of it limits assumed): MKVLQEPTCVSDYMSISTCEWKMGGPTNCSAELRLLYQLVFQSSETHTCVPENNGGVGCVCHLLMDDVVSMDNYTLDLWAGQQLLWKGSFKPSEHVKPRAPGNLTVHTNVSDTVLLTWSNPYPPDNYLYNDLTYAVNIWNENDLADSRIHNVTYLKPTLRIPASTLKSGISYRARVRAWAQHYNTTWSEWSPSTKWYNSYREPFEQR
T1 sequence (Q0PIT7 entry or part of it limits assumed): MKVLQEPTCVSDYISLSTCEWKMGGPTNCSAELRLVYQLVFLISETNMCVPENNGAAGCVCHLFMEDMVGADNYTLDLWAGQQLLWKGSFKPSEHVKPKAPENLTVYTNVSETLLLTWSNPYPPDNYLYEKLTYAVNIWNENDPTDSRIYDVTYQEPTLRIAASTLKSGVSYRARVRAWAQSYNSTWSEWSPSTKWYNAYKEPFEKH

Binder	Kd (Marmoset IL-4R ECD) [nM]	koff (Marmoset IL-4R ECD) [s⁻¹]	kon (Marmoset IL-4R ECD) [M⁻¹ s⁻¹]	Kd (cynomolgus IL-4R ECD) [nM]	koff (cynomolgus IL-4R ECD) [s⁻¹]	kon (cynomolgus IL-4R ECD) [M⁻¹ s⁻¹]	IC50, neutralization of hIL-4-induced signaling in reporter gene assay (IL-4R on HEK-Blue cells [1]) [ng/mL]	IC50, neutralization of hIL-13-induced signaling in reporter gene assay (IL-4R on HEK-Blue cells [1]) [ng/mL]	rel. IC50 (IC50, dupilumab/IC50, test sample), hIL-4-induced signaling (IL-4R on HEK-Blue cells [1]) [ratio]	rel. IC50 (IC50, dupilumab/IC50, test sample), hIL-13-induced signaling (IL-4R on HEK-Blue cells [1]) [ratio]	IC50 (Biotinylated IL-4R [2]) [ng/mL]	rel. IC50 (IC50, dupilumab/IC50, test sample) (Biotinylated IL-4R [2]) [ratio]	Kd (Human IL-4R-Fc [3]) [nM]	koff (Human IL-4R-Fc [3]) [s⁻¹]	kon (Human IL-4R-Fc [3]) [M⁻¹ s⁻¹]	Kd (cynomolgus IL-4R-Fc [4]) [nM]	koff (cynomolgus IL-4R-Fc [4]) [s⁻¹]	kon (cynomolgus IL-4R-Fc [4]) [M⁻¹ s⁻¹]	further results
B1	0.392	0.00105	2.67e+06	0.681	0.000404	594000	1.44	1.83	0.39	0.57	0.54	3.46	0.0055	1.95e-05	3.55e+06	0.0946	0.000182	1.92e+06	
B2	0.787	0.00254	3.23e+06	0.376	0.000238	634000	1.15	2.3	1.02	0.99	1.92	0.98	0.0199	5.42e-05	2.72e+06	0.165	0.000264	1.6e+06	
B3																			IC50, neutralization of hIL-4 induced signaling in reporter gene assay (IL-4R on HEK-Blue cells [5]): 1 ng/mL; IC50, neutralization of hIL-13 induced signaling in reporter gene assay (IL-4R on HEK-Blue cells [5]): 1.15 ng/mL; rel. IC50 (IC50, dupilumab/IC50, test sample), hIL-4 induced signaling (IL-4R on HEK-Blue cells [5]): 1.15 ratio; rel. IC50 (IC50, dupilumab/IC50, test sample), hIL-13 induced signaling (IL-4R on HEK-Blue cells [5]): 0.87 ratio; Kd (cynomolgus IL-4R-Fc [6]): 0.0908 nM; koff (cynomolgus IL-4R-Fc [6]): 0.000109 s⁻¹; kon (cynomolgus IL-4R-Fc [6]): 1.2e+06 M⁻¹ s⁻¹; Kd (Human IL-4R-Fc [7]): 0.00791 nM; koff (Human IL-4R-Fc [7]): 1.7e-05 s⁻¹; kon (Human IL-4R-Fc [7]): 2.15e+06 M⁻¹ s⁻¹; IC50 (Biotinylated IL-4R [8]): 3.41 ng/mL; rel. IC50 (IC50, dupilumab/IC50, test sample) (Biotinylated IL-4R [8]): 1.95 ratio
